In patent publication US20190309065A1 one finds fold increase in B*4201 TL9 tetramer+ CD8 T cells, 6-day CFSE proliferation assay of PBMC with TL9 peptide plus anti-PD-L1 blocking antibody (peptide alone: 4.8-fold) and percentage of B*4201 TL9-specific CD8 T cells after 6-day stimulation with peptide, in the presence of anti-PD-L1 blocking antibody (without it: 5.7%) data, which are given here for one molecule.

This test concerns the target human PD-L1 (human) (UniProt Q9NZQ7). Briefly: cell-based or functional assay.
UniProt Q9NZQ7, sequence (Q9NZQ7 19-290): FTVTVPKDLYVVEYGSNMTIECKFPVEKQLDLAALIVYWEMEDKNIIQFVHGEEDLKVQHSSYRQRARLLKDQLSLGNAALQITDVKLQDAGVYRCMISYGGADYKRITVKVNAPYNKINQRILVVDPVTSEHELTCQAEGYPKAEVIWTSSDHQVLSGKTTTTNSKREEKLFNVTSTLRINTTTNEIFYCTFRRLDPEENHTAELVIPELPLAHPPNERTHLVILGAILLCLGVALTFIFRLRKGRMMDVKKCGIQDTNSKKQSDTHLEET

B1: monoclonal antibody to human PD-L1, clone 29E.2A3 (mouse IgG2b) (antibody, from another filing, V domains shown)
VH: EVQLQQSGPELVKPGASVKMSCKASGYTFTSYVMHWVKQKPGQGLEWIGYVNPFNDGTKYNEMFKGKATLTSDKSSSTAYMELSSLTSEDSAVYYCARQAWGYPWGQGTLVTVSA
VL: DIVLTQSPASLAVSLGQRATISCRATESVEYYGTSLVQWYQQKPGQPPKLLIYAASSVDSGVPARFSGSGSGTDFSLTIHPVEEDDIAMYFCQQSRRVPYTFGGGTKLEIK
For the molecule B1, the fold increase in B*4201 TL9 tetramer+ CD8 T cells, 6-day CFSE proliferation assay of PBMC with TL9 peptide plus anti-PD-L1 blocking antibody (peptide alone: 4.8-fold) was determined as 10.3 fold and the percentage of B*4201 TL9-specific CD8 T cells after 6-day stimulation with peptide, in the presence of anti-PD-L1 blocking antibody (without it: 5.7%) worked out at 12.4%.
